Results taken from publication PMC11162790.

Test system: ArsR-P (phosphorylated His6-ArsR) (Helicobacter pylori SMI109)
Test: EMSA
Settings: Buffer F: 50 mM Tris-acetate pH 7.5, 100 mM K-glutamate, 20 mM Mg-acetate, 5% glycerol, 0.1 ug poly dI-dC, 25 C, 30 min; EMSA 5-7 nM DNA, footprint 25 nM DNA

## PsabA SMI109 (T13, wt) 407 bp
  K half: 1350 nM
